Consider 6 molecules from article PMC8546571, “Methylation of PhoP by CheR Regulates Salmonella Virulence” (mBio, 2021).

A word on the Kd: it is the constant that tells how readily two partners part at equilibrium. A higher Kd goes with weaker binding.

Data set [1] relates to PhoP from cheR-overexpressing cells (methylated PhoP) (Salmonella enterica serovar Typhimurium 14028S). In words: ITC. The note with it: EMSA: 25 mM Tris-HCl pH 8.0, 50 mM KCl, 5 mM MgCl2, 0.5 mM EDTA, 10% glycerol, room temp 20 min, 1.6 pmol probe in 10 ul; ITC: 6.15 uM DNA into 0.6 uM PhoP …. On the technique in general: A gel shift assay detects complexes by their altered migration in electrophoresis.

In data set [2] the test system is PhoP from control Salmonella cells (Salmonella enterica serovar Typhimurium 14028S). In words: ITC. The note with it: EMSA: 25 mM Tris-HCl pH 8.0, 50 mM KCl, 5 mM MgCl2, 0.5 mM EDTA, 10% glycerol, room temp 20 min, 1.6 pmol probe in 10 ul; ITC: 6.15 uM DNA into 0.6 uM PhoP ….
Data set [3] concerns the molecule itself. In words: cross-linking; purified His-tagged PhoP incubated with 1 mM DSS in 50 mM HEPES-Na pH 7.5, 150 mM NaCl, 10 mM MgCl2, 20% glycerol, 0.05% Tween 20, 25°C, 30 min; Western blot with anti-His antibody; monomer to dimer.

As to “phoP promoter DNA / PhoP box consensus (ITC)”, the Kd came out at 0.476 nM in data set [1] and 0.122 nM in data set [2].

B1: wild-type PhoP (6×His-tagged, recombinant) (natural protein)
chain: MMRVLVVEDNALLRHHLKVQLQDSGHQVDAAEDAREADYYLNEHLPDIAIVDLGLPDEDGLSLIRRWRSSDVSLPVLVLTAREGWQDKVEVLSSGADDYVTKPFHIEEVMARMQALMRRNSGLASQVINIPPFQVDLSRRELSVNEEVIKLTAFEYTIMETLIRNNGKVVSKDSLMLQLYPDAELRESHTIDVLMGRLRKKIQAQYPHDVITTVRGQGYLFELR
notes: PhoP, response regulator of the PhoP/PhoQ two-component system, S. Typhimurium strain 14028S; phoP PCR amplified from genomic DNA and cloned into pQE80; also called PhoP WT; source: E. coli BL21, purified (Ni-NTA); not shown: His6, C-terminal, kept
For the molecule B1, in data set [3], the binding result was “binds”.

B2: PhoP D9A variant (natural protein)
chain: MMRVLVVEANALLRHHLKVQLQDSGHQVDAAEDAREADYYLNEHLPDIAIVDLGLPDEDGLSLIRRWRSSDVSLPVLVLTAREGWQDKVEVLSSGADDYVTKPFHIEEVMARMQALMRRNSGLASQVINIPPFQVDLSRRELSVNEEVIKLTAFEYTIMETLIRNNGKVVSKDSLMLQLYPDAELRESHTIDVLMGRLRKKIQAQYPHDVITTVRGQGYLFELR
notes: PhoP, S. Typhimurium strain 14028S, with D9A; source: E. coli BL21, purified (Ni-NTA); not shown: His6, C-terminal, kept
Take B2: the binding result in data set [3] is recorded as “binds”.

B3: PhoP purified from the bacteria with an endogenous level of cheR expression (natural protein)
chain: MMRVLVVEDNALLRHHLKVQLQDSGHQVDAAEDAREADYYLNEHLPDIAIVDLGLPDEDGLSLIRRWRSSDVSLPVLVLTAREGWQDKVEVLSSGADDYVTKPFHIEEVMARMQALMRRNSGLASQVINIPPFQVDLSRRELSVNEEVIKLTAFEYTIMETLIRNNGKVVSKDSLMLQLYPDAELRESHTIDVLMGRLRKKIQAQYPHDVITTVRGQGYLFELR
notes: PhoP, S. Typhimurium strain 14028S, His-tagged and purified from Salmonella; also called PhoP from control cells; PhoP isolated from the wild-type strain; source: S. Typhimurium with an endogenous level of cheR expression, purified (His tag); not shown: His6, C-terminal, kept
For the molecule B3, the binding result in data set [3] is recorded as “binds”.

B4: PhoP E107A variant (natural protein)
chain: MMRVLVVEDNALLRHHLKVQLQDSGHQVDAAEDAREADYYLNEHLPDIAIVDLGLPDEDGLSLIRRWRSSDVSLPVLVLTAREGWQDKVEVLSSGADDYVTKPFHIAEVMARMQALMRRNSGLASQVINIPPFQVDLSRRELSVNEEVIKLTAFEYTIMETLIRNNGKVVSKDSLMLQLYPDAELRESHTIDVLMGRLRKKIQAQYPHDVITTVRGQGYLFELR
notes: PhoP, S. Typhimurium strain 14028S, with E107A; source: E. coli BL21, purified (Ni-NTA); not shown: His6, C-terminal, kept
Consider B4, for which, in data set [3], the binding result is listed as “binds”.

B5: PhoP E8A variant (natural protein)
chain: MMRVLVVADNALLRHHLKVQLQDSGHQVDAAEDAREADYYLNEHLPDIAIVDLGLPDEDGLSLIRRWRSSDVSLPVLVLTAREGWQDKVEVLSSGADDYVTKPFHIEEVMARMQALMRRNSGLASQVINIPPFQVDLSRRELSVNEEVIKLTAFEYTIMETLIRNNGKVVSKDSLMLQLYPDAELRESHTIDVLMGRLRKKIQAQYPHDVITTVRGQGYLFELR
notes: PhoP, S. Typhimurium strain 14028S, with E8A; source: E. coli BL21, purified (Ni-NTA); not shown: His6, C-terminal, kept
Consider B5, for which, in data set [3], the binding result is “binds”.
